Results: patent US20230212319A1, “NOVEL ANTIGEN BINDING DOMAINS AND SYNTHETIC ANTIGEN RECEPTORS INCORPORATING THE SAME” (University of Southern California, priority 2020, published 2023)

System: RAJI cells
Test: JNG assay, co-culture with RAJI cells
Format: cell-based
Conditions: JNG cells expressing construct, co-culture with Raji
Summary of the method: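 Jurkat NFAT-GFP (JNG) cells stably transduced with SARs by lentivirus, with drug selection where the construct carried a resistance gene, then co-cultured with target cells at E:T ~1:2 for ~4–18 h. % GFP-positive cells measured by FACS against parental JNG; +/- to 5+ correspond to ~5–50% GFP-positive.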

Molecule	NFAT-GFP ASSAY: Raji
22033 (protein) MALPVTALLLPLALLLHAARPQLQLQESGPGLVKPSETLSLTCTVSGDSISSGDYYWGWIRQPPGKGLEWIGHIYYSGVTYYNPSLKSRVTISVDTSRNQFSLKLSSVTAADTAVYYCTREDSSNWRSRGQGTLVTVSSLEDKTHTCPPCPAEVKTDSTDHVKPKETENTKQPSKSCHKPKAIVHTEKVNMMSLTVLGLRMLFAKTVAVNFLLTAKLFFLRAKRSGSGVKQTLNFDLLKLAGDVESNPGPTSMDWIWRILFLVGAATGAHSFEVQLVESGGGVVQPGRSLRLSCAASGFSFSGYGMHWVRQAPGKGLEWVAYISYDGSNKYYADSVKGRFTISRDNSKNTLYLQMNSLRAEDTAVYYCAKDPAWGLRLGESSSYDFDIWGQGTMVTVSSTRIQNPDPAVYQLRDSKSSDKSVCLFTDFDSQTNVSQSKDSDVYITDKCVLDMRSMDFKSNSAVAWSNKSDFACANAFNNSIIPEDTFFPSPESSCDVKLVEKSFETDTNLNFQNLSVIGFRILLLKVAGFNLLMTLRLWSSRAKRSGSGVKQTLNFDLLKLAGDVESNPGPSRGHMTEYKPTVRLATRDDVPRAVRTLAAAFADYPATRHTVDPDRHIERVTELQELFLTRVGLDIGKVWVADDGAAVAVWTTPESVEAGAVFAEIGPRMAELSGSRLAAQQQMEGLLAPHRPKEPAWFLATVGVSPDHQGKGLGSAVVLPGVEAAERAGVPAFLETSAPRNLPFYERLGFTVTADVEVPEGPRTWCMTRKPGA	+/- (refer to approximately 5%, 10%, 20%, 30%, 40% and 50% GFP positive cells)
22080 (protein) MALPVTALLLPLALLLHAARPQLQLQESGPGLVKPSETLSLTCTVSGDSISSGDYYWGWIRQPPGKGLEWIGHIYYSGVTYYNPSLKSRVTISVDTSRNQFSLKLSSVTAADTAVYYCTREDSSNWRSRGQGTLVTVSSLESGGGGSFEEVQLLESGGGLVQPGGSLRLSCAASGFTFSSYAMSWVRQAPGKGLEWVSSISGSGDYIYYADSVKGRFTISRDISKNTLYLQMNSLRAEDTAVYYCAKEGTGANSSLADYRGQGTLVTVSSTRASTKGPSVFPLAPSSKSTSGGTAALGCLVKDYFPEPVTVSWNSGALTSGVHTFPAVLQSSGLYSLSSVVTVPSSSLGTQTYICNVNHKPSNTKVDKRVEPKSCIPEDTFFPSPESSCDVKLVEKSFETDTNLNFQNLSVIGFRILLLKVAGFNLLMTLRLWSSRAKRSGSGVKQTLNFDLLKLAGDVESNPGPSRGHMTEYKPTVRLATRDDVPRAVRTLAAAFADYPATRHTVDPDRHIERVTELQELFLTRVGLDIGKVWVADDGAAVAVWTTPESVEAGAVFAEIGPRMAELSGSRLAAQQQMEGLLAPHRPKEPAWFLATVGVSPDHQGKGLGSAVVLPGVEAAERAGVPAFLETSAPRNLPFYERLGFTVTADVEVPEGPRTWCMTRKPGA	+ (refer to approximately 5%, 10%, 20%, 30%, 40% and 50% GFP positive cells)
22011 (protein) MALPVTALLLPLALLLHAARPQLQLQESGPGLVKPSETLSLTCTVSGDSISSGDYYWGWIRQPPGKGLEWIGHIYYSGVTYYNPSLKSRVTISVDTSRNQFSLKLSSVTAADTAVYYCTREDSSNWRSRGQGTLVTVSSLEDLKNVFPPEVAVFEPSEAEISHTQKATLVCLATGFYPDHVELSWWVNGKEVHSGVCTDPQPLKEQPALNDSRYCLSSRLRVSATFWQNPRNHFRCQVQFYGLSENDEWTQDRAKPVTQIVSAEAWGRADCGFTSESYQQGVLSATILYEILLGKATLYAVLVSALVLMAMVKRKDSRGRAKRSGSGATNFSLLKQAGDVEENPGPTSMDWIWRILFLVGAATGAHSFEQLQLQESGPGLVKPSETLSLTCTVSGGSISSGDYYWGWIRQPPGKGLEWIGHIYYSGATYYNPSLKSRVTISVDTSRNQFSLKLSSVTAADTAVYYCTRDDSSNWRSRGQGTLVTVSSTRIQNPDPAVYQLRDSKSSDKSVCLFTDFDSQTNVSQSKDSDVYITDKCVLDMRSMDFKSNSAVAWSNKSDFACANAFNNSIIPEDTFFPSPESSCDVKLVEKSFETDTNLNFQNLSVIGFRILLLKVAGFNLLMTLRLWSSRAKRSGSGVKQTLNFDLLKLAGDVESNPGPSRGHMTEYKPTVRLATRDDVPRAVRTLAAAFADYPATRHTVDPDRHIERVTELQELFLTRVGLDIGKVWVADDGAAVAVWTTPESVEAGAVFAEIGPRMAELSGSRLAAQQQMEGLLAPHRPKEPAWFLATVGVSPDHQGKGLGSAVVLPGVEAAERAGVPAFLETSAPRNLPFYERLGFTVTADVEVPEGPRTWCMTRKPGA	+/- (refer to approximately 5%, 10%, 20%, 30%, 40% and 50% GFP positive cells)
22069 (protein) MALPVTALLLPLALLLHAARPQLQLQESGPGLVKPSETLSLTCTVSGDSISSGDYYWGWIRQPPGKGLEWIGHIYYSGVTYYNPSLKSRVTISVDTSRNQFSLKLSSVTAADTAVYYCTREDSSNWRSRGQGTLVTVSSLEGGGGSGGGGSGGGGSVEIQNPDPAVYQLRDSKSSDKSVCLFTDFDSQTNVSQSKDSDVYITDKCVLDMRSMDFKSNSAVAWSNKSDFACANAFNNSIIPEDTFFPSPESSCDVKLVEKSFETDTNLNFQNLSVIGFRILLLKVAGFNLLMTLRLWSSSSRAKRSGSGVKQTLNFDLLKLAGDVESNPGPTSMDWIWRILFLVGAATGAHSFEVQLLESGGGLIQPGGSLRLSCAASGFTFSSHAMTWVRQAPGKGLEWVSAISGSGDYTHYADSVKGRFTISRDNSKNTVYLQMNSLRAEDSAVYYCAKDEDGGSLLGHRGQGTLVTVSSTRIQNPDPAVYQLRDSKSSDKSVCLFTDFDSQTNVSQSKDSDVYITDKCVLDMRSMDFKSNSAVAWSNKSDFACANAFNNSIIPEDTFFPSPESSCDVKLVEKSFETDTNLNFQNLSVIGFRILLLKVAGFNLLMTLRLWSSRAKRSGSGVKQTLNFDLLKLAGDVESNPGPSRGHMTEYKPTVRLATRDDVPRAVRTLAAAFADYPATRHTVDPDRHIERVTELQELFLTRVGLDIGKVWVADDGAAVAVWTTPESVEAGAVFAEIGPRMAELSGSRLAAQQQMEGLLAPHRPKEPAWFLATVGVSPDHQGKGLGSAVVLPGVEAAERAGVPAFLETSAPRNLPFYERLGFTVTADVEVPEGPRTWCMTRKPGA	+ (refer to approximately 5%, 10%, 20%, 30%, 40% and 50% GFP positive cells)
22032 (protein) MALPVTALLLPLALLLHAARPQLQLQESGPGLVKPSETLSLTCTVSGDSISSGDYYWGWIRQPPGKGLEWIGHIYYSGVTYYNPSLKSRVTISVDTSRNQFSLKLSSVTAADTAVYYCTREDSSNWRSRGQGTLVTVSSLEGSEVKTDSTDHVKPKETENTKQPSKSCHKPKAIVHTEKVNMMSLTVLGLRMLFAKTVAVNFLLTAKLFFLRAKRSGSGVKQTLNFDLLKLAGDVESNPGPTSMDWIWRILFLVGAATGAHSFEVQLVESGGGVVQPGRSLRLSCAASGFSFSGYGMHWVRQAPGKGLEWVAYISYDGSNKYYADSVKGRFTISRDNSKNTLYLQMNSLRAEDTAVYYCAKDPAWGLRLGESSSYDFDIWGQGTMVTVSSTRIQNPDPAVYQLRDSKSSDKSVCLFTDFDSQTNVSQSKDSDVYITDKCVLDMRSMDFKSNSAVAWSNKSDFACANAFNNSIIPEDTFFPSPESSCDVKLVEKSFETDTNLNFQNLSVIGFRILLLKVAGFNLLMTLRLWSSRAKRSGSGVKQTLNFDLLKLAGDVESNPGPSRGHMTEYKPTVRLATRDDVPRAVRTLAAAFADYPATRHTVDPDRHIERVTELQELFLTRVGLDIGKVWVADDGAAVAVWTTPESVEAGAVFAEIGPRMAELSGSRLAAQQQMEGLLAPHRPKEPAWFLATVGVSPDHQGKGLGSAVVLPGVEAAERAGVPAFLETSAPRNLPFYERLGFTVTADVEVPEGPRTWCMTRKPGA	+/- (refer to approximately 5%, 10%, 20%, 30%, 40% and 50% GFP positive cells)
22031 (protein) MALPVTALLLPLALLLHAARPQLQLQESGPGLVKPSETLSLTCTVSGDSISSGDYYWGWIRQPPGKGLEWIGHIYYSGVTYYNPSLKSRVTISVDTSRNQFSLKLSSVTAADTAVYYCTREDSSNWRSRGQGTLVTVSSLEGSPIKTDVITMDPKDNCSKDANDTLLLQLTNTSAYYMYLLLLLKSVVYFAIITCCLLRRTAFCCNGEKSRAKRSGSGATNFSLLKQAGDVEENPGPTSMDWIWRILFLVGAATGAHSFEVQLVESGGGVVQPGRSLRLSCAASGFSFSGYGMHWVRQAPGKGLEWVAYISYDGSNKYYADSVKGRFTISRDNSKNTLYLQMNSLRAEDTAVYYCAKDPAWGLRLGESSSYDFDIWGQGTMVTVSSTRIQNPDPAVYQLRDSKSSDKSVCLFTDFDSQTNVSQSKDSDVYITDKCVLDMRSMDFKSNSAVAWSNKSDFACANAFNNSIIPEDTFFPSPESSCDVKLVEKSFETDTNLNFQNLSVIGFRILLLKVAGFNLLMTLRLWSSRAKRSGSGVKQTLNFDLLKLAGDVESNPGPSRGHMTEYKPTVRLATRDDVPRAVRTLAAAFADYPATRHTVDPDRHIERVTELQELFLTRVGLDIGKVWVADDGAAVAVWTTPESVEAGAVFAEIGPRMAELSGSRLAAQQQMEGLLAPHRPKEPAWFLATVGVSPDHQGKGLGSAVVLPGVEAAERAGVPAFLETSAPRNLPFYERLGFTVTADVEVPEGPRTWCMTRKPGA	+/- (refer to approximately 5%, 10%, 20%, 30%, 40% and 50% GFP positive cells)
22056 (protein) MALPVTALLLPLALLLHAARPQLQLQESGPGLVKPSETLSLTCTVSGDSISSGDYYWGWIRQPPGKGLEWIGHIYYSGVTYYNPSLKSRVTISVDTSRNQFSLKLSSVTAADTAVYYCTREDSSNWRSRGQGTLVTVSSLEGSPIKTDVITMDPKDNCSKDANDTLLLQLTNTSAYYMYLLLLLKSVVYFAIITCCLLRRTAFCCNGEKSRAKRSGSGATNFSLLKQAGDVEENPGPTSMDWIWRILFLVGAATGAHSFEVQLVESGGGVVQPGRSLRLSCAASGFSFSGYGMHWVRQAPGKGLEWVAYISYDGSNKYYADSVKGRFTISRDNSKNTLYLQMNSLRAEDTAVYYCAKDPAWGLRLGESSSYDFDIWGQGTMVTVSSTRDKTHTCPPCPAGRADCGFTSESYQQGVLSATILYEILLGKATLYAVLVSALVLMAMVKRKDFRAKRSGSGATNFSLLKQAGDVEENPGPSRGHMTEYKPTVRLATRDDVPRAVRTLAAAFADYPATRHTVDPDRHIERVTELQELFLTRVGLDIGKVWVADDGAAVAVWTTPESVEAGAVFAEIGPRMAELSGSRLAAQQQMEGLLAPHRPKEPAWFLATVGVSPDHQGKGLGSAVVLPGVEAAERAGVPAFLETSAPRNLPFYERLGFTVTADVEVPEGPRTWCMTRKPGA	+/- (refer to approximately 5%, 10%, 20%, 30%, 40% and 50% GFP positive cells)
